The DeepSol protein solubility set

Test: soluble on expression in E. coli; label from the status in PepcDB or PDB records

Row | Sequence | soluble on expression in E. coli
1 | MKNFVAGAQSGRKIQSGGCAIHCQDCSISQLCIPFTLNEQELDQLDNIIERKKPIQKSQVLFKAGDSLNSIYAIRSGTIKSYTISESGEEQITSFHLPGDLVGFDAITQMQHPSFAQALETAMVCEIPFDILDDLAGKMPKLRQQILRLMSSEIKSDQEMILLLSKMNAEERLAAFIHNLSKRYSARGFSAREFRLTMTRGDIGNYLGLTVETISRLLGRFQKLGVISVQGKYITINDLNGLIELTGTNKTKITLVK | not soluble
2 | MPTISRSALVMYSVDQMYQLINDIPAYPKFLPDCNDSKVIDQDEQSVTAALLVSKGGLSKWFTTKNTLISNEKIHLSLVDGPFKKLEGYWLLTPLSDEACKVSLELEYEFSNKLVSLAFGKVFGHFSNSLVQVFTQRAKEIYGVNVLEHHHHHH | soluble
3 | MGKTLYEKVYDAHVAVAAEGETPILYIDRHLVHEVTSPQAFDGLREKGRKVRQVSKTFATMDHNVSTTTKDINASGEMARIQMETLSKNCEEFGVTLYDLNHKYQGIVHVMGPELGITLPGMTIVCGDSHTATHGAFGSLAFGIGTSEVEHVLATQTLKQARAKT | not soluble
4 | GVTGADGTTTFTLKQDQTTGLKTELTAALDSSSSTKSTLPVVFTVLTSPDSPKAKFWGHMAETATGDDGLIYRRPLLRDENSATTSIGTLVEEGEAWSTFPSGQANDTSINGCGAEYVPTDNELRAIYAHQGSSALHDAIGWPVSRFYISNTVADTFTQTFTYDVVSLKTGDETQMPSSGGALLSCR | not soluble
5 | MTSPSSASPDGHGARLDAQSIRFERLLPGPIERVWAWLADADKRARWLAGGELPRQPGQTFELHFNHAALTAETAPARYAQYDRPIVARHTLLRCEPPRVLALTWGGGAGEAPSEVLFELSEAGEQVRLVLTHTRLADRAAMLDVAGGWHAHLAVLAGKLAGQAPPPFWTTLAQAEQDYEQRLLEHHHHHH | soluble
6 | MDKKILVVDDEKPIADILEFNLRKEGYEVHCAHDGNEAVEMVEELQPDLILLDIMLPNKDGVEVCREVRKKYDMPIIMLTAKDSEIDKVIGLEIGADDYVTKPFSTRELLARVKANLRRQ | soluble
7 | MQATIYDLDGNTDGEVDLPDVFETPVRSDLIGKAVRAAQANRKQDYGSDEYAGLRTPAESFGSGRGQAHVPKLDGRARRVPQAVKGRSAHPPKTEKDRSLDLNDKERQLAVRSALAATADADLVADRGHEFDRDEVPVVVSDDFEDLVKTQEVVSLLEALDVHADIDRADETKIKAGQGSARGRKYRRPASILFVTSDEPSTAARNLAGADVATASEVNTEDLAPGGAPGRLTVFTESALAEVAER | soluble
8 | SLFFFASQIVREENKLLDLLFNLFKDFNSFKLEVKRRDKNFAENSSNFKKYLAVKLFEKYQLKGVINNPEIIANIEILKEHFLVFTER | not soluble
9 | DGRRMVQGLLTASLLTSIGGDLEVLASRMDLQFQRPVYTGETLVCELTVVSADPHTDGGVALVGDVAVRRVNRDDNSGQADTAAP | not soluble
10 | MGHHHHHHSHMDALSPSPAIPSNTDYPGPHSFDVSFQQSSTAKSATWTYSTELKKLYCQIAKTCPIQIKVMTPPPQGAVIRAMPVYKKAEHVTEVVKRCPNHELSREFNEGQIAPPSHLIRVEGNSHAQYVEDPITGRQSVLVPYEPPQVGTEFTTVLYNFMCNSSCVGGMNRRPILIIVTLETRDGQVLGRRCFEARICACPGRDRKADEDSIRKQQVSDSTKNGDGTKRPFRQNTHGIQM | not soluble
11 | SNAKIIGYARVSFNAQKDDLERQIQLIKSYAEENGWDIQILKDIGSGLNEKRKNYKKLLKMVMNRKVEKVIIAYPDRLTRFGFETLKEFFKSYGTEIVIINKKHKTPQEELVEDLITIVSHFAGKLYGMHSHKYKKLTKTVKEIVREEDAKEKE | soluble
12 | MKRWIAIILIALMPAAQAGKAAKVTLVVDDVPVVQVLQTLAEQERQNLVVSPDVSGTLSLHLTDVPWKQALQTVVNSAGLVLRQEGNILHVHSQAWQKEHSARQDAERLRFQANLPLENRSISLQYADAGELAKAGEKLLSAKGTIMVDKRTNRLLLRDNRAALAELEKWVSQMDLPVAQVELAAHIVTINEKSLRELGVKWTLADATQAGSVGDVTTLSSDLSVAAATSRVGFNIGRINGRLLDLELSALEQKQLLDIIASPRLLASHLQPASIKQGSEIPYQVSSGESGATSVEFKEAVLGMEVTPTVLQKGRIRLKLHISQNVPGQVLQQADGEVLAIDKQEIETQVEVKSGETLALGGIFSRKNKSGSDSVPLLGDIPWLGQLFRHDGKEDERRELVVFITPRLVATELEHHHHHH | soluble
13 | MNNVIIIGGGIAGLCAAISLQKIGLDVKVYDKNTEPTVAGAGIIIAPNAMQALELYGISKKIKKFGNESDGFNLVSKKGTTFNKLIIPTCYPKMYSIHRKDLHQLLLSELKEDTVKWGKECVKIEQNEENALKIVFQDGSEALGNILIAADGIHSIVRKQVTQGDNYRYAGYTCWRGVTPTKNLSLTNDFIETWGTNGRFGIVPLPNNEVYWYALINAKARDPKYKAYTTTDLYNHFKTYHNPIPSILQNASDIDMIHRDIIDITPMKQFFDKRIVFIGDAAHALTPNLGQGACQAIEDAIILAECIKNNAYYRQAFTEFEQKRRDRIEKISNTAWKVGKIAQIESKPLTIVRNKVMKRIPKWISERQAHELYRFHL | not soluble
14 | MGSDKIHHHHHHMDEALAHANGETPAVGDYMTRDVATVSADDTVSDVAARISESDHNGFPVTDGRHVEGFVSARDLLLADPDELLFKVMTEDLVVAHPEMDVTDAARVILRSGIQKLPVVDDAGNLVGIITNADVIRSQIERATPEKVGKLMRTLETIHGVSITEERRTVTISDVVPTQGKVYADELEGRRYELENGLAEPLVVIDNGSTGDDGSLLLADGHHRVMAAERAGVAEMDAYVIVLERAVDLGMARTARTEGLDSIADIDVVDYARHPLVETIERLQ | not soluble
15 | MTAVTAGKLIGVGVGPGDPELLTVKAVKAIKSADVIVFHAKPNGQSAAHRIAESYIRQDQVLELLEYPVTTGVTEHPGGYAGAMAAFYASVGERLRDHLIEGKNVVVLALGDPMLYSSYQHIHRLLSEDFNAEIIPGIPSITSAADVLGKPLCEDDDVLTILPGTLPHSELVARLSDSDGAVVMKLGRTFDKVRKAMIEAGVADRAHVVVRVGMADQHSVPVMEADPQAIPYFSVAVVPSITDTNGDSGDKQQGEVVVVGLGPGGHRWTTPEVMAELKQATDIVGYSTYVNRVPQQAGQRRHLSDNKVEAERAAMALDMAKQGRKVAVVSSGDPGVFAMAAAVLETADDDQWREVPVRIIPGMTAAQAVASRVGAPLGHDFGMISLSNRLKPFEIVEKRIRALASADMAFACYNPASKERRWQVARMKEIVSEYQAGSTPVIVARAVGSDQETVTVTTLEDFDPDIVDMRTMVIIGASTTKTYQGGDGVRVFTSRWYT | not soluble
16 | MGSDKIHHHHHHMGTVLIHVCCAPDLLTTIFHVRDAEFFFYNPNIQPLSEYEKRREAVDKVANHFSLNVRYGEYSTEEIRKWYTAVKDYKDLGEGSKRCERCISFLLERTAQEARKRGHESFSTTLLASPRKNLPMIENIGKTIEEKYGVKFFFKNFRKGGAYQEGVRLSKELGIYRQNYCGCVFSLLERREKHAEISRKRGHM | not soluble
17 | MAEQSDKDVKYYTLEEIQKHKDSKSTWVILHHKVYDLTKFLEEHPGGEEVLREQAGGDATENFEDVGHSTDARELSKTYIIGELHPDDRSKIAKPSETL | soluble
18 | KARGNVGFVAGSSYGTGSVWTRNNEVVVLTASHVVGRANMATLKIGDAMLTLTFKKNGDFAEAVTTQSELPGNWPQLHFAQPTTGPASWCTATGDEEGLLSGEVCLAWTTSGDSGSAVVQGDAVVGVHTGSNTSGVAYVTTPSGKLLGADTVTLSSLSKHFTGPLTSIPKDIPDNIIADVDAVPRSLAMLIDGLSNRE | soluble
19 | MSLQGQIDIPLDIVGRWQADQSAYELAKTYYWAKVAHLAEHNDQLAQPTYEGAHLADISEINNAPATARRMLVVSSDLFRAQQTAHAFADLMGLDVELDPRLRERSFGEWEGMTREEICEHYADDYHSWRAHTGGETKHGVESRIHTGRRGAEAVRDIVAKHHDETMPTTLLLVGHGSWIVATVAVLLDMDPDDLNNVGAMRNAFWTRMTPHTDPRNADRPTWKLEEFNQGPAIASFADWENGPESLRAPGMPLWKPIIQEGHHHHHH | not soluble
20 | MSLKSELPPVQVALDLVDLPRAIEIAKEAVAGGVTWVEAGTPLIKSEGMNAIRELRKNFPTLTIVADMKTMDAGSTEVEMAAKAGANVILILGVGPDSMIIDAVKAGKKYGVLVGTDLIATEDPIKRAVELEEMGVDIINIHVGLDQQVLNVDPVELVKRVSENCKKAKIAAAGGLNSETAVKAYEAGADIIIAGGTLYKSADPEQTARDIIKGLKTGKPVKTDKFKKFNESELVSAFNVVSTSNISDAMHRTGEMKGLKPVWNSEKPLKFAGPAVTVRTYSGDWSKPVSAIDDCEAGNVLVIDNCSSEIACWGGLATLSCETKGVVAIVIDGAVRDVEEILKIGIPVFARSITPTAGEPKGFGEINAVIDCAGRTVEPGDWIVGDENGIIVVPKNEAMEIANRAIDVKEREDRVKEEITRGTTLAKTIRLKDWELKEGHHHHHH | soluble
21 | MGHHHHHHSHMPATLLRAVARSHHILSKAHQCRRIGHLMLKPLKEFENTTCSTLTIRQSLDLFLPDKTASGLNKSQILEMNQKKSDTSMLSPLNAARCQDEKAHLPTMKSFGTHRRVTHKPNLLGSKWFIKILKRHFSSVSTETFVPKQDFPQVKRPLKASRTRQPSRTNLPVLSVNEDLMHCTAFATADEYHLGNLSQDLASHGYVEVTSLPRGTSS | not soluble
22 | MGSDKIHHHHHHMRTVYIIGSKGIPAKYGGFETFVEKLTEYQKDKSINYFVACTRENSAKSGITGEVFEHNGATCFNIDVPNIGSAKAILYDIMALKKSIEIAKDRNDTSPIFYILACRIGPFIYLFKKQIESIGGQLFVNPDGHEWLREKWSYPVRQYWKFSESLMLKYADLLICDSKNIEKYIHEDYRKYAPETSYIAYGTDLDKSRLSPTDSVVREWYKEKEISENDYYLVVGRFVPENNYEVMIREFMKSYSRKDFVLITNVEHNSFYEKLKKETGFDKDKRIKFVGTVYNQELLKYIRENAFAYFHGHEVGGTNPSLLEALSSTKLNLLLDVGFNREVGEEGAKYWNKDNLHRVIDSCEQLSQEQINDMDSLSTKQVKERFSWDFIVDEYEKLFKG | not soluble
23 | MGSDKIHHHHHHMAYLDNIAVFVRVVELGNLSAAGRDMRISPAVASNRIKELEKHLGVRLFNRTTRQLMPTEHGTVFYSGAKQVLEAITEAEAAVSALSGQPRGTIRVTAPLGLGRRLVASGIPDFHDKYPDIEVRLRLSDHNVDIMKEGIDVAFRLGIIEDSSLRMRGIMECERVLVAAPKYLEARGEPAEPQELIGKKHDCLMLRYSGAREYVWTLQTPTGPQKFEVHGPYDTDDGDVLTGWALSGRGIINKPRFEVEPFIRDRRLQVILANTPPTPVQFAAVYPHKKLQDPKVRLLLDFMAERCQRLIKDILAGK | not soluble
24 | MSLKDKFGREIRSLRISITNKCNLQCFYCHREGHDSNNDRYMTPEEIGIIAKTSTKFGVKKIKISGGEPLLRKDVCEIIENIKDERIKDISLTTNGILLENLAEKLKDAGLNRVNVSLDTLNPELYKKITKFGDVERVINGIKKAIDVSLTPLKVNFLAMSINIKDLPDIMEFCRDIGAILQIIEFIPLKEELKGYYYNISPIENEIKEKADKVITRNFMQNRKKYIVDGLEIEFVRPMDNSEFCMHCTRIRLTYDGYLKPCLLRDDNLVDVLTPLRKGENLEPYFIECINRREPYFKIKEGHHHHHH | soluble
